In patent US20240247080A1, “GLP1/GIP/NPY2 RECEPTOR TRIPLE AGONISTS” (Boehringer Ingelheim International GmbH, priority 2022, published 2024):
Starred links: 1 amine or outer side, 2 acyl side, 3 side chain; linkers in the order of their positions; H or OH if unused. Non-standard residues stand in square brackets, D forms with d. Groups on a side chain read outwards from the residue. No end group written: not given here. *: point of attachment. C18 diacid = O=C(O)CCCCCCCCCCCCCCCCC(=O)*; γGlu = O=C(O)[C@H](CCC(=O)[*:2])N[*:1]; AEEA = NCCOCCOCC(=O)O; Aib = CC(C)(N)C(=O)O; Ahx = NCCCCCC(=O)O

How the values were obtained:
Experiment in all cases: cell-based or functional assay
human GLP-1 receptor = human GLP-1 receptor (human, UniProt P43220 24-463)
human GIP receptor = molecular target: T1, human GIP receptor (human, UniProt P48546 22-466)
T1 sequence (looked up): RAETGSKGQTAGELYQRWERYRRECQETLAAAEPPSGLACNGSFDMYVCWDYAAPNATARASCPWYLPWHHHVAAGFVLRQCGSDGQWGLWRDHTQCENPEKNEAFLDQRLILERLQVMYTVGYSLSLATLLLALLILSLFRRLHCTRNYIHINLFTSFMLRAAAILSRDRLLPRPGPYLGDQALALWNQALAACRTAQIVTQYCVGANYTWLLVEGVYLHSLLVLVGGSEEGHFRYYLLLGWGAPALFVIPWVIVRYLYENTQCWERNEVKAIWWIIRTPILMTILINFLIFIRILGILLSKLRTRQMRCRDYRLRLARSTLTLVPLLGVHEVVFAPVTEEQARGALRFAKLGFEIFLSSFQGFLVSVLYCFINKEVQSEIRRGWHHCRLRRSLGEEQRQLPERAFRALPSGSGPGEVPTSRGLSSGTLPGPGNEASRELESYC

[1] = molecular target: T2, human neuropeptide Y2 receptor (human, UniProt P49146 1-381)
T2 sequence (looked up): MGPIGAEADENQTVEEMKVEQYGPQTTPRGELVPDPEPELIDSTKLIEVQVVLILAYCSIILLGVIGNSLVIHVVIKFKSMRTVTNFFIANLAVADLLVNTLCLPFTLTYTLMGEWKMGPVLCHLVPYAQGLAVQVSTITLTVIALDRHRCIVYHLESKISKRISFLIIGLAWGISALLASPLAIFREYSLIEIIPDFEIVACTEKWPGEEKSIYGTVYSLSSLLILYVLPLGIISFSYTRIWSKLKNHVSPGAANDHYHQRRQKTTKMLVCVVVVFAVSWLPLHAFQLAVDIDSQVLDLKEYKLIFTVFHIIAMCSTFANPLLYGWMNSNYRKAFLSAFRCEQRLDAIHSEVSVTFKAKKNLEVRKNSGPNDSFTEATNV

B1: Compound 301 (peptide)
peptide: YXEGTFTSDYSIXLEKQAQXAFVEWLIKGGPSEGASLRHYYNWLTRQRY
modifications: Aib at 2, 13, 20; K28 side chain acylated with C20DA-gGlu-gGlu-gGlu-gGlu-gGlu-AHX; C-terminal amide (NH2)
- EC50 hGLP1R 0.5% hP (CreLuc) (human GLP-1 receptor): 0.23 nM
- EC50 hGLP1R 100% hP (CreLuc) (human GLP-1 receptor): 11.3 nM
- EC50 hGIPR 0.5% hP (CreLuc) (human GIP receptor): 0.58 nM
- EC50 hGIPR 100% hP (CreLuc) (human GIP receptor): 3.27 nM
- EC50 hNPY2R 0.5% hP (CreLuc) [1]: 25.4 nM
- EC50 hNPY2R 100% hP (CreLuc) [1]: 99.3 nM

B2: Compound 304 (peptide)
peptide: YXEGTFTSDYSIXLEKQAQXAFVEWLIKGGPSEGASLRHYYNWLTRQRY
modifications: Aib at 2, 13, 20; K28 side chain acylated with C18DA-gGlu-gGlu-gGlu-gGlu-gGlu-AHX; C-terminal amide (NH2)
- EC50 hGLP1R 0.5% hP (CreLuc) (human GLP-1 receptor): 0.35 nM
- EC50 hGLP1R 100% hP (CreLuc) (human GLP-1 receptor): 10.3 nM
- EC50 hGIPR 0.5% hP (CreLuc) (human GIP receptor): 0.23 nM
- EC50 hGIPR 100% hP (CreLuc) (human GIP receptor): 2.35 nM
- EC50 hNPY2R 0.5% hP (CreLuc) [1]: 35.7 nM
- EC50 hNPY2R 100% hP (CreLuc) [1]: 114 nM

Binder: Y[Aib]EGTFTSDYSI[Aib]LEKQAQ[Aib]AFVEWLIK([AEEA-γGlu-γGlu-γGlu-C18 diacid])GGPSEGASLRHYYNWLTRQRY-NH2 (also: TFA salt) [Compound 300]
- EC50 hGLP1R 0.5% hP (CreLuc) (human GLP-1 receptor): 0.11 nM
- EC50 hGLP1R 100% hP (CreLuc) (human GLP-1 receptor): 6.33 nM
- EC50 hGIPR 0.5% hP (CreLuc) (human GIP receptor): 0.16 nM
- EC50 hGIPR 100% hP (CreLuc) (human GIP receptor): 1.81 nM
- EC50 hNPY2R 0.5% hP (CreLuc) [1]: 20 nM
- EC50 hNPY2R 100% hP (CreLuc) [1]: 89.3 nM

Binder: Y[Aib]EGTFTSDYSI[Aib]LEKQAQ[Aib]AFVEWLIK([Glu-Glu-Glu-Glu-Glu-Glu-C18 diacid])GGPSEGASLRHYYNWLTRQRY-NH2 (also: TFA salt) [Compound 302]
- EC50 hGLP1R 0.5% hP (CreLuc) (human GLP-1 receptor): 0.15 nM
- EC50 hGLP1R 100% hP (CreLuc) (human GLP-1 receptor): 6.05 nM
- EC50 hGIPR 0.5% hP (CreLuc) (human GIP receptor): 0.33 nM
- EC50 hGIPR 100% hP (CreLuc) (human GIP receptor): 3.87 nM
- EC50 hNPY2R 0.5% hP (CreLuc) [1]: 31.9 nM
- EC50 hNPY2R 100% hP (CreLuc) [1]: 173 nM

Binder: Y[Aib]EGTFTSDYSI[Aib]LEKQAQ[Aib]AFVEWLIK([Ahx-γGlu-γGlu-γGlu-γGlu-γGlu-γGlu-C18 diacid])GGPSEGASLRHYYNWLTRQRY-NH2 (also: TFA salt) [Compound 303]
- EC50 hGLP1R 0.5% hP (CreLuc) (human GLP-1 receptor): 0.2 nM
- EC50 hGLP1R 100% hP (CreLuc) (human GLP-1 receptor): 4.42 nM
- EC50 hGIPR 0.5% hP (CreLuc) (human GIP receptor): 0.36 nM
- EC50 hGIPR 100% hP (CreLuc) (human GIP receptor): 2.36 nM
- EC50 hNPY2R 0.5% hP (CreLuc) [1]: 33.3 nM
- EC50 hNPY2R 100% hP (CreLuc) [1]: 122 nM
